This passage reports DC50 (half-life of peptide-HLA-A2.1 complexes) and RA (relative affinity) (ratio to HIV 1 rt.476 reference peptide) results from patent US7345026.

For experiment [1], the target named is HLA-A2.1 molecules on T2 (TAP-, HLA-A2.1+) cells (human). As to the kind of experiment: T2 cells, stabilisation assay, BB7.2 flow cytometry at 0, 2, 4, 6, 8 h. For orientation: In flow cytometry, cells or beads pass a laser one at a time.
Experiment [2] shares this target. The experiment is described as follows: T2 cells, peptide binding by surface HLA-A2.1 (BB7.2) flow cytometry; ratio of concentrations reaching 20% of maximal binding.

In turn, Tyrosinase 368-376-N epitopic peptide displayed a DC50 (half-life of peptide-HLA-A2.1 complexes) in experiment [1] of over 8 h. For the same substance, the RA (relative affinity) (ratio to HIV 1 rt.476 reference peptide) in experiment [2] came out at 2.2.
